± gives the uncertainty stated by the source.
Experiment: amyloid nucleation score (Sup35N fusion, yeast selection) (log enrichment); library NNK2; higher = more nucleation; inactive = no reads after selection
Procedure, shortened: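 The nucleation score, computed with DiMSum, is the log enrichment of output over input reads, centred on the mode score of non-aggregating sequences. Sequences with under 100 input reads were dropped. Reads were generated by Illumina sequencing of plasmid inserts from psi-negative yeast with Sup35N fused to peptides of 20 random codons, induced with 100 μM copper sulfate for 24 hours and grown 7 days at 30°C on medium lacking adenine and uracil.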

Substance | amyloid nucleation score
RIATLSFDSAIIQVYLRGSG | 7.028 ± 0.033
RICVKLKVDSGVKMHQTTAG | 7.952 ± 0.034
RIDGVFTIVSFYMELEGIRV | inactive
RIDILGVTRWN | 0.633 ± 0.3
RIEVLTLCGGEAGSLVMGIV | 1.16 ± 0.48
RIFITIRIINPPKDFFIRCY | inactive
RIFTFLSVSHPN | 4.53 ± 0.053
RIFVWVGSVWFWGVS | 3.55 ± 0.13
RILIINLSPNEYMIGLH | 4.3 ± 0.1
RIQINWDEFGQDRELRVSGR | 0.75 ± 0.5
RIRRVSERMSVFRTLHRTMW | 5.01 ± 0.079
RISCSMVKRSYFRHVLVCEI | 1.74 ± 0.26
RISNVWENTFTLSAGSWGVR | 1.38 ± 0.22
RISVYRPVGVLLF | 0.755 ± 0.4
RITDYRCLTMNKGQSARNQG | inactive
RITPFWYQRIYRIMY | -0.339 ± 0.22
RIVGDLICDVSSSQISTSHT | -0.291 ± 0.48
RIWKWLLTQICFIRAQPLM | 0.49 ± 0.31
RKATQIPMSVSMER | 1.45 ± 0.4
RKCAPMDASSRHADSYPSQS | 1.24 ± 0.19
RKKMGFF | inactive
RKLGNLLPPEY | 0.499 ± 0.35
RKLIYSICKYVFALSVTIVG | -1.3 ± 0.32
RKNVYFIFPIISSLYKV | 7.009 ± 0.049
RKPMLFLRYF | inactive
RKPRFIACMTSPCLALC | 0.066 ± 0.5

Substance | amyloid nucleation score
RKSYGRSWSSGNLYYNLHGD | -1.18 ± 1.1
RKVLLVGCCPLVLKIVFCSV | 7.734 ± 0.048
RKVLLVNVLGSDEDTHLTRV | -0.973 ± 0.76
RLDWREVHWLVRKTLL | 0.648 ± 0.16
RLDYNSSCQIFLFAGFMYLF | 3.23 ± 0.067
RLFANASGVDMEGTGYNRSD | 0.359 ± 0.4
RLFTWIFPTGNTGF | 8.831 ± 0.074
RLIACIRIVSVVVNAVSLKG | 1.79 ± 0.42
RLKGGFVEGPSGRVTCVRIT | 0.132 ± 0.38
RLKVVLRYLASGHWKLVA | 1.31 ± 0.41
RLKWKLEQNSSLLWGRYRTA | 1.24 ± 0.14
RLKYHWGGFEA | 0.767 ± 0.4
RLLAGIFLEEKFYPRPSDIL | 3.69 ± 0.13
RLLWLPLHSFMGMDTPSGVY | 0.448 ± 0.6
RLMHGRIRPLNSKWLTGLG | 1.11 ± 0.34
RLMTVI | -0.229 ± 0.28
RLNIGLLSVGYR | 1.76 ± 0.17
RLPFYVW | inactive
RLQRVLS | -0.458 ± 0.42
RLSCDTVFMMSFGIICSFFN | 4.418 ± 0.039
RLWYSSSVLLV | 0.709 ± 0.36
RMCMAIKERSY | 0.508 ± 0.38
RMFIVHSCSTWLTNNGLNHM | 5.318 ± 0.036
RMLCLTSG | -0.59 ± 0.63
RMLGALFGMHVNYRAVSELF | 1.49 ± 0.12
RMLGFD | -0.147 ± 1.1

Substance | amyloid nucleation score
RMMVGALAGFMV | 0.578 ± 0.35
RMPFHVFRIKFHFLLRVPIQ | 0.851 ± 0.52
RMRQASEAKSLGGPIGRQGL | 1.2 ± 0.15
RNALLCADLTPLAPLNLFCD | -0.636 ± 0.76
RNFFPHGFWSLQTKYNVLFM | 5.684 ± 0.05
RNFMVDRSGWQSKYVTHSLE | -0.324 ± 0.6
RNGLRTLEQRRSKSVWEMSW | 0.969 ± 0.16
RNILPLARDSVVFNDCYDSG | 0.545 ± 0.33
RNIQYVAMEVCDFKFPVDGV | 0.223 ± 0.26
RNLDFIA | 3.33 ± 0.068
RNLGSCY | -0.08 ± 0.46
RNRAENV | -0.36 ± 0.76
RNSMGTFSRWYPIMY | -0.54 ± 0.48
RNSSVGT | inactive
RNSYALNINEM | -0.4 ± 0.38
RNTYRRGGLPFVAYNRTSVG | 0.125 ± 0.28
RNWWGLSVYNSIYWCVMSRD | 4.835 ± 0.043
RPKSKADYGWC | -0.119 ± 0.45
RPNDMHTT | -0.064 ± 0.26
RPRVVTQLFMYLNDCRGSPP | 6.693 ± 0.055
RPSNKT | 0.761 ± 0.56
RPVSSFVSASGSRSGLQSLK | 0.085 ± 0.8
RQRVMHAHHCLLYLMVKHFI | -0.675 ± 1.1
RQTGRLDFRTISRVKVDVIV | 1.92 ± 0.28
RQYFNVLDCWGIGVFGHKG | 1.34 ± 0.3
RRAGNIVLECSG | 3.68 ± 0.11

Substance | amyloid nucleation score
RRAVLVSPGVVNQGISKHQG | 0.632 ± 0.25
RRFEPKVRKKHQGLFLWYSV | 0.028 ± 0.25
RRFVLARVPNNKCPQTIRLD | 0.733 ± 0.48
RRHSNRICLQLWNHLGKRCR | 0.587 ± 0.29
RRIFYHEYHMRDSIH | 1.7 ± 0.1
RRLLGRLFLGTTSKLYVGDL | -0.147 ± 0.26
RRRCYHTVSKFRWNIQSAVT | -0.337 ± 1
RRWVG | 0.015 ± 0.45
RSARDYSVLKSRILSSAGLG | 1.32 ± 0.39
RSAYNY | -0.844 ± 0.4
RSCYNFGKGLCVFMTLARLW | -0.82 ± 0.48
RSELLRRKGILMYLLPGGGY | 0.009 ± 0.61
RSHAT | 0.579 ± 0.33
RSKLFVISNGRRMHVVLSST | 0.605 ± 0.51
RSKLNIDV | 1.95 ± 0.14
RSKMNRLMVLRSRVRWWYNE | 0.485 ± 0.32
RSLGTRAFAVRFRTSCWINV | -0.317 ± 0.46
RSLSNMCN | -1.24 ± 1
RSLVDLMRGFDIV | 5.62 ± 0.062
RSMISRAIYWQSWSTREERT | 1.86 ± 0.093
RSNFIQDSLSYFDILAIRRG | inactive
RSQTSWLKDLWQRSLTSDCS | 4.62 ± 0.059
RSRAQQHSQHNTVDITPTRS | 0.194 ± 0.32
RSRDRGRCWFMMSRGMGGVA | 0.483 ± 0.56
RSRSYHADWACTVVCLCYS | 4.24 ± 0.066
RSSGLIGLGWKQI | -1.67 ± 0.75

Substance | amyloid nucleation score
RSTTM | inactive
RSVLWSSMVGV | 1.39 ± 0.44
RSYIRFGNYVHYDQLWLFGG | 3.04 ± 0.12
RSYLVFYTRYLTFNGPSTKF | 7.79 ± 0.08
RTEEQ | -0.254 ± 0.54
RTFVVNQVEWDVYIWRSGSV | 0.004 ± 0.56
RTFYFYGRHR | -1.11 ± 1.1
RTGAMPSR | 0.518 ± 0.51
RTHPTCSVCVKLYPLGTPRR | 2.38 ± 0.13
RTMSNGSDVCFNNGMFHYLN | -1.04 ± 0.76
RTPPISMGKHNFVYVSSVCG | -1.1 ± 0.36
RTRLYIDQRRKAFYPGLGFS | 0.347 ± 0.55
RTRRSSTGGRNEASGNRSAG | 2.87 ± 0.13
RTSAPVLRYSVCLNAKYSLG | 0.683 ± 0.21
RTSHSLRWMVRPYRRADPMR | 0.691 ± 0.54
RTWSIFIASVKYVKV | -0.24 ± 0.74
RVCPVSG | -0.068 ± 0.79
RVDVLIE | 9.82 ± 0.048
RVESDTDVIVQIMQWRGVFL | 0.334 ± 0.28
RVFSLDWVIERMSVEFHSWG | inactive
RVGTLKTISFHSNLNSNKIR | -0.614 ± 0.33
RVIILNTNDGSVEDMYVESQ | 3.98 ± 0.049
RVIVGRYWQSTDVVYYIWNF | -1.59 ± 0.76
RVKLACTRLCWLSADFDGNL | 4.04 ± 0.079

— the supplement of paper PMC12042874
